Patent US20060127985A1 (IMMUNEX, published 2006)

Columns and labels:
[1] = molecular target: T1, human 4-1BB ligand (4-1BB-L), cell surface (human, UniProt P41273 1-254); test: slide autoradiography on transfected CV-1 cells
T1 construct: Native on the anti-CD3-stimulated PL1 (PL-1) T cell clone, the source of the cDNA; Recombinant full length on transfected CV-1/EBNA cells; also called hu4-1BB-L; clone 7A

[2] = molecular target: T2, murine 4-1BB ligand (4-1BB-L), cell surface (murine, UniProt P41274 1-309); test: Scatchard analysis, 125I-4-1BB/Fc binding to EL4 6.1C10 cells
T2 construct: Native on EL4 6.1C10 and EL4 6.1 thymoma cells, the source of the cDNA; Recombinant full length on transfected COS and CV-1 cells; also called mu4-1BB-L; native surface mu4-1BB-L
T2 sequence: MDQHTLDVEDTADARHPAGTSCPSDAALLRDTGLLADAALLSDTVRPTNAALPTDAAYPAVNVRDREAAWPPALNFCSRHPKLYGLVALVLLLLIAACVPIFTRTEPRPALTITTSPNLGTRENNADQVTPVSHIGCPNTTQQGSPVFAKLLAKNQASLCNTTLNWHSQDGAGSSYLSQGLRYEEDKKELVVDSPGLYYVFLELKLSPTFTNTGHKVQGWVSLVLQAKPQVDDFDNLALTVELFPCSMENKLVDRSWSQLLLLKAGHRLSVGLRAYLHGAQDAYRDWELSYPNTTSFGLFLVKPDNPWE
Experimental: Several cell lines were screened for the ability to bind the radioiodinated murine 4-1BB/Fc fusion protein described in Example 1. Briefly, quantitative binding studies were performed according to standard methodology, and Scatchard plots were derived for the various cell lines. […] The EL4 6.1C10 cell line was derived from a subclone designated EL4 6.1 by using a cell sorter to enrich for a cell population expressing high levels of murine type I Interleukin-1 receptor, as described in U.S. Pat. No. 4,968,607. EL4 6.1 had been derived from a mouse thymoma cell line EL-4 (ATCC TIB39) as described by MacDonald et al. (J. Immunol. 135:3944, 1985) and Lowenthal and MacDonald (J. Exp. Med. 164:1060, 1986).

T1 sequence (P41273 whole entry): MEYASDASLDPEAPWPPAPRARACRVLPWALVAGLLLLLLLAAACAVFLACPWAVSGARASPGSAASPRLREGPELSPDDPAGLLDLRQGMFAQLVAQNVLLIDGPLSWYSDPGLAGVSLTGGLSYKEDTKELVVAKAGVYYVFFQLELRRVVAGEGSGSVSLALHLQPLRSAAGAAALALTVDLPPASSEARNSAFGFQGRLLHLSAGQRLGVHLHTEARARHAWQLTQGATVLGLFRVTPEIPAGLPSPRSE

B1: murine 4-1BB/Fc fusion protein (Fc fusion)
chain: VQNSCDNCQPGTFCRKYNPVCKSCPPSTFSSIGGQPNCNICRVCAGYFRFKKFCSSTHNAECECIEGFHCLGPQCTRCEKDCRPGQELTKQGCKTCSLGTFNDQNGTGVCRPWTNCSLDGRSVLKTGTTEKDVVCGPPVVSFSPSTTISVTPEEPRSCDKTHTCPPCPAPELLGGPSVFLFPPKPKDTLMISRTPEVTCVVVDVSHEDPEVKFNWYVDGVEVHNAKTKPREEQYNSTYRVVSVLTVLHQDWLNGKDYKCKVSNKALPAPMQKTISKAKGQPREPQVYTLPPSRDELTKNQVSLTCLVKGFYPRHIAVEWESNGQPENNYKTTPPVLDSDGSFFLYSKLTVDKSRWQQGNVFSCSVMHEALHNHYTQKSLSLSPGK
modifications: 125I-radioiodinated where used as tracer
notes: The murine IL-7 leader of the vector is cleaved on secretion; Fc is joined through the BglII site; also called mu4-1BB/Fc; soluble murine 4-1BB/Fc
For B1, the binding result [1] was “no binding” and the Ka [2] was about 2e+09 M⁻¹.
